The target of one assay is plasma kallikrein. The assay can be described thus: enzyme inhibition with chromogenic substrate (Dixon plot); enzyme (FXIIa 10 nM, plasma kallikrein 80 nM, trypsin 800 nM, elastase 400 nM) incubated with 0.5, 1 and 2 uM native poecistasin in 60 uL of 50 mM Tris buffer pH 7.4 for 5 min, then 0.2 mM chromogenic substrate; absorbance at 405 nm for 10 min; Ki from Dixon plot.

A further assay concerns the target factor XIIa. Described as above.

Take native poecistasin (natural protein): the Ki – broadly, the equilibrium dissociation constant of an inhibitor or competing ligand from its target – with plasma kallikrein is 52 nM; in the assay with factor XIIa, 9.31 nM.
